According to PMC4654411:

Molecular target: Full-length HA-tagged PTPN12 (human) (UniProt Q05209)
Assay: co-IP; Hek293 cells co-transfected with HA-PTPN12 and GFP-tagged FlnAs; 500 µg lysate in NETF buffer, 6 µg anti-HA 2 h at 4 °C, protein A beads; immunoblot

Chain of UniProt Q05209 (Q05209 whole entry): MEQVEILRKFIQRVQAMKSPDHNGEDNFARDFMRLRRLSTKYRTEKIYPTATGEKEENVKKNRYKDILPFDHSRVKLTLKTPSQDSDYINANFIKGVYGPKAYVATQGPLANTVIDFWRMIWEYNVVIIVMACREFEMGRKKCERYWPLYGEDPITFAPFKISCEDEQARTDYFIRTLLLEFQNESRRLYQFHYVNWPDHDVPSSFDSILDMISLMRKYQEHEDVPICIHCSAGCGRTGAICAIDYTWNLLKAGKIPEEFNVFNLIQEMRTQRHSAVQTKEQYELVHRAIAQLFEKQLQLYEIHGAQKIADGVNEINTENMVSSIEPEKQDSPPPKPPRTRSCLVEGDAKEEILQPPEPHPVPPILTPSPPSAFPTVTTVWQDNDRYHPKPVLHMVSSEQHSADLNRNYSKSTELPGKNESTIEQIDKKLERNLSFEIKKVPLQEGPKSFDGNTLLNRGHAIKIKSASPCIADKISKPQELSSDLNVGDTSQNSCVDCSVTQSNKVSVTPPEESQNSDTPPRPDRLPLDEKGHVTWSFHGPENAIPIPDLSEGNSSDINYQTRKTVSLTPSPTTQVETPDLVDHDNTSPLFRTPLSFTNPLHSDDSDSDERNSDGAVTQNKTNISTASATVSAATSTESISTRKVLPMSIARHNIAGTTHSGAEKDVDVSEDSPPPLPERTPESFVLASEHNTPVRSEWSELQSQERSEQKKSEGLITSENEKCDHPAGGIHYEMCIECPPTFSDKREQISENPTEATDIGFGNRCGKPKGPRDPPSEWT

Substance | reduction of the FlnA co-immunoprecipitated with respect to FlnA-WT
GFP-tagged-FlnA-G288R, P21333 1-2647 | > 60%
GFP-tagged-FlnA-P637Q, P21333 1-2647 | > 60%
